Laboratory results taken from patent publication US9732101B2, “Bioreversible boronates for delivery of molecules into cells” (WISCONSIN ALUMNI RESEARCH FOUNDATION, priority 2012, dated 2017).

How the values were obtained:
HeLa cells = test: Cellular internalization by flow cytometry; assay type: cell-based; conditions: for increase in cellular uptake into HeLa cells: 5 μM, 4 h, relative to unmodified lysozyme; for effect of fructose on enhancement of cellular uptake into HeLa cells: fructose 250 mM
Method: Cell lines were obtained from American Type Culture Collection (Manassas, Va.) and were maintained according to the recommended guidelines. Cells were grown in a cell culture incubator at 37° C. and 5% CO2 in flat-bottomed culture flasks. Cell media was supplemented with 10% (v/v) GIBCO fetal bovine serum (FBS), 100 units/mL penicillin, and 100 μg/mL streptomycin in the appropriate cellular media for HeLa cells: DMEM, high glucose (Invitrogen, Carlsbad, Calif.). Cells were counted by hemocytometry for dispensing into 12-well plates (Corning Costar, Lowell, Mass.).
BODIPY-FL was excited with a 488 nm solid-state laser and the emission was collected with a 530/30 bandpass filter. At least 10,000 cellular events were acquired for each sample. Data were analyzed using FlowJo 8.1.3 (Treestar, Ashland, Oreg.).
The day prior to the experiment, 1×10^5HeLa cells/well were plated in 12 well plates. The day of the experiment, the appropriate amount of fructose was dissolved into the cellular medium to obtain a final 250 mM fructose concentration, then it was sterile filtered with a 0.45 μm Whatman (Piscataway, N.J.) syringe filter. Non-fructose containing medium was likewise sterile filtered to maintain consistency between the experimental groups. Stock solutions of fluorescently labeled proteins were diluted into the cell culture to a final concentration of 5 μM. proteins were incubated with cells for four hours, then the cells were rinsed twice with PBS, removed from the cell culture plate with trypsin, placed in flow cytometry tubes containing 80 μL of FBS (to ensure cell viability), and incubated on ice until analyzed by flow cytometry. Final fluorescence values were divided by the percent fluorophore labeling of the protein to determine the corrected value of fluorescence. Experiments were run in triplicate (except for PBA-boronated lysozyme, which was in duplicate) and the data is reported as the mean±standard deviation normalized to the wild type protein uptake.
Flow cytometry experiments were conducted as described in Example 11 with Fluorescein-conjugated NeutrAvidin and Boronated Fluorescein-conjugated NeutrAvidin (boronated by complexation to the PBA-boronated Biotin-peptide conjugate) in HeLa cells.

Pro-5 cells = test: Cellular internalization by flow cytometry; assay type: cell-based, Chinese hamster
Method: (§1) Cell lines were obtained from American Type Culture Collection (Manassas, Va.) and were maintained according to the recommended procedures. Cells were grown in a cell culture incubator at 37° C. under CO2 (5% v/v) in flat-bottomed culture flasks. Cell medium was supplemented with GIBCO fetal bovine serum (FBS) (10% v/v), penicillin (100 units/mL), and streptomycin (100 μg/mL) in the appropriate cellular medium as follows: Pro-5, MEM α+ribonucleosides+deoxyribonucleosides; Lec-2, MEM α-ribonucleosides-deoxyribonucleosides; and K562, RPMI 1640. Cells were counted by hemocytometry for dispensing into 12-well plates (Corning Costar, Lowell, Mass.) or 8-well chambered coverglass slides (Nuc Lab-Tek II, Thermo Scientific).
(§2) BODIPY-FL was excited with a 488 nm solid-state laser and the emission was collected with a 530/30 bandpass filter. To collect the most reproducible data, for every flow cytometry experiment, the sensitivity (voltage) of the photomultiplier tube was set for all data collections using mid-range Rainbow beads from Spherotech (Lake Forest, Ill.) to a predetermined fluorescence target value. At least 10,000 cellular events were acquired for each sample. Data were analyzed using FlowJo 8.1.3 (Treestar, Ashland, Oreg.).
(§3) The day prior to an experiment, Pro-5 and Lec-2 cells were plated in 12-well plates at 1×10^5 cells/well. The day of the experiment, the appropriate amount of fructose was dissolved into the cellular medium to obtain a final fructose concentration of 250 mM, and the medium was passed through a 0.45-μm syringe filter from Whatman (Piscataway, N.J.). Non-fructose-containing medium was filtered likewise. Stock solutions of fluorescently labeled ribonucleases were diluted into the cell culture to a final concentration of 5 μM. Ribonucleases were incubated with cells for 4 h. Cells were then rinsed with PBS (2×400 μL), removed from the cell culture plate with trypsin (400 μL, 0.05% (1×) with EDTA; Invitrogen, Carlsbad, Calif.), placed in flow cytometry tubes containing 80 μL of FBS, and incubated on ice until analyzed by flow cytometry. Final fluorescence values were divided by the percent fluorophore labeling of the ribonuclease to determine the corrected value of fluorescence. Experiments were run twice in triplicate unless otherwise indicated. Data is illustrated in FIG. 4A and FIG. 4C.

Lec-2 cells = test: Cellular internalization by flow cytometry; assay type: cell-based, Chinese hamster
Method: as §1, §2, §3

[1] = Hydrolysis of labeled protein by cell lysate; assay type: in vitro ADME, Chinese hamster; conditions: CHO K1 cell lysate, ambient temperature, 12 h, MALDI-TOF
Method: CHO K1 cells were grown to confluence in a 10-cm^2 dish before their collection and lysis with M-PER (Thermo Fisher Scientific). The presence of esterase activity in the lysate was verified by a colorimetric assay using p-nitrophenyl acetate (data not shown). A solution of TMLB-GFP (10 μg) was added to 200 μL of CHO K1 cell lysate, and the reaction mixture was nutated at ambient temperature for 12 h. The GFP was subsequently purified with HisPur™ Ni-NTA Magnetic Beads (Thermo Fisher Scientific).

K-562 cells = test: Cell-proliferation assay, CyQUANT NF; assay type: cell-based, human; conditions: 48 h, serum-free RPMI 1640, read-out: IC50, inhibition of K-562 cell proliferation
Method: The effect of unmodified G88R RNase A and TMLB-G88R RNase A on the proliferation of K-562 cells was assayed using a CyQUANT® NF Cell Proliferation Assay Kit (Invitrogen). Briefly, 5×10^4 cells/mL were added to each well of a 96-well plate in 100 μL of serum-free RPMI 1640 medium. Cells were incubated with G88R RNase A or TMLB-G88R RNase A for 48 h, with PBS and H2O2 serving as negative and positive controls, respectively. Cells were then washed and incubated in CyQUANT® reagent for 30 min and fluorescence intensity was measured with excitation at ˜485 nm and emission detection at ˜530 nm. Data are the average of two measurements for each concentration, and the entire experiment was repeated in triplicate. The results are shown as the percentage of dye incorporated relative to control cells treated with PBS. Values for IC50 were calculated by fitting the curves by nonlinear regression to the equation: y=100%/(1+10^(log(IC50)-log [ribonuclease])h), where y is the total DNA synthesis following the CyQUANT dye pulse and h is the slope of the curve (FIG. 28).

[2] = Hydrolysis of labeled protein by cell lysate; assay type: in vitro ADME, human; conditions: K-562 cell lysate, ambient temperature, 12 h, MALDI-TOF
Method: K-562 cells were grown to confluence in a T75 flask before their collection and lysis with M-PER from Thermo Fisher Scientific. The presence of esterase activity in the lysate was verified by a colorimetric assay using p-nitrophenyl acetate (data not shown). A solution of esterified FLAG-RNase A (10 μg) was added to 200 μL of K-562 cell lysate, and the reaction mixture was nutated at ambient temperature for 12 h. FLAG-RNase A was purified with anti-FLAG® M2 Magnetic Beads from Sigma-Aldrich.

[3] = 5 μM, 4 h, relative to unmodified RNase A

Molecule: Boronated Fluorescein-conjugated NeutrAvidin: Fluorescein-conjugated NeutrAvidin boronated by complexation to the PBA-boronated Biotin-peptide conjugate
- increase in internalization in HeLa cells (HeLa cells; relative to unmodified Fluorescein-conjugated NeutrAvidin): about 2 fold

Molecule: PBA-boronated lysozyme: chicken egg white lysozyme conjugated with 3-aminophenyboronic acid, on average 2.6±1.7 PBA
- increase in cellular uptake into HeLa cells (HeLa cells): about 20 fold
- effect of fructose on enhancement of cellular uptake into HeLa cells (HeLa cells): decreased

Molecule: benzoboroxole-boronated lysozyme: chicken egg white lysozyme conjugated with 5-amino-2-hydroxymethylphenylboronic acid, on average 2.3±1.1 per lysozyme
- increase in cellular uptake into HeLa cells (HeLa cells): about 4 fold
- effect of fructose on enhancement of cellular uptake into HeLa cells (HeLa cells): decreased

B1: PBA-boronated RNase A: RNase A conjugated with 3-aminophenylboronic acid, on average 5.3±2.3 PBA per protein (conjugate, UniProt P61823 27-150, looked up)
Ribonuclease pancreatic: KETAAAKFERQHMDSSTSAASSSNYCNQMMKSRNLTKDRCKPVNTFVHESLADVQAVCSQKNVACKNGQTNCYQSYSTMSITDCRETGSSKYPNCAYKTTQANKHIIVACEGNPYVPVHFDASV
modifications: 3-aminophenylboronic acid conjugates
notes: RNase A conjugated with 3-aminophenylboronic acid, on average 5.3±2.3 PBA per protein
- increase in cellular uptake (Pro-5 cells; [3]): 2.5-3 fold
- effect of fructose on enhancement of cellular uptake (Pro-5 cells; fructose 0.25 M): eliminated
- increase in cellular uptake (Lec-2 cells; [3]): 2.5-3 fold
- effect of fructose on enhancement of cellular uptake (Lec-2 cells; fructose 0.25 M): eliminated

B2: TMLB-labeled G88R RNase A: G88R RNase A labeled with TMLB-NHS ester, 2±1 labels per protein (conjugate, UniProt P61823 27-150, looked up, variant G88R)
Ribonuclease pancreatic: KETAAAKFERQHMDSSTSAASSSNYCNQMMKSRNLTKDRCKPVNTFVHESLADVQAVCSQKNVACKNGQTNCYQSYSTMSITDCRETRSSKYPNCAYKTTQANKHIIVACEGNPYVPVHFDASV
modifications: TMLB ester labels
notes: G88R RNase A labeled with TMLB-NHS ester, 2±1 labels per protein
- reversibility of labeling: removal of labels by cell lysate [1]: removed all of the labels
- IC50 (K-562 cells): 3.5 ± 0.8 µM

B3: esterified FLAG-RNase A: FLAG-RNase A labeled with TMLB-NHS ester, 1.6±0.7 labels per protein (conjugate, UniProt P61823 27-150, looked up)
Ribonuclease pancreatic: KETAAAKFERQHMDSSTSAASSSNYCNQMMKSRNLTKDRCKPVNTFVHESLADVQAVCSQKNVACKNGQTNCYQSYSTMSITDCRETGSSKYPNCAYKTTQANKHIIVACEGNPYVPVHFDASV
modifications: FLAG tag; TMLB ester labels
notes: FLAG-RNase A labeled with TMLB-NHS ester, 1.6±0.7 labels per protein
- reversibility of labeling: removal of labels by cell lysate [2]: regeneration of unlabeled FLAG-RNase A was confirmed

B4: G88R RNase A: cytotoxic G88R variant of ribonuclease A (protein, UniProt P61823 27-150, looked up, variant G88R)
Ribonuclease pancreatic: KETAAAKFERQHMDSSTSAASSSNYCNQMMKSRNLTKDRCKPVNTFVHESLADVQAVCSQKNVACKNGQTNCYQSYSTMSITDCRETRSSKYPNCAYKTTQANKHIIVACEGNPYVPVHFDASV
- IC50 (K-562 cells): 6.4 ± 0.1 µM
